From US20200399369A1 (Sanofi, published 2020) come the findings set out here.

B1: CD38VH1/CD28sup x CD3mid_ENLQ DKTHT IgG4 FALA (other)
light 1: DIVMTQTPLSLSVTPGQPASISCKSSQSLVHENLQTYLSWYLQKPGQSPQSLIYKVSNRFSGVPDRFSGSGSGTDFTLKISRVEAEDVGVYYCGQGTQYPFTFGSGTKVEIKDKTHTDIQMTQSPSSLSASVGDRVTITCQASQNIYVWLNWYQQKPGKAPKLLIYKASNLHTGVPSRFSGSGSGTDFTLTISSLQPEDIATYYCQQGQTYPYTFGQGTKLEIKDKTHTRTVAAPSVFIFPPSDEQLKSGTASVVCLLNNFYPREAKVQWKVDNALQSGNSQESVTEQDSKDSTYSLSSTLTLSKADYEKHKVYACEVTHQGLSSPVTKSFNRGEC
heavy 1: QVQLVQSGAEVVKPGASVKVSCKASGYTFTSYYIHWVRQAPGQGLEWIGSIYPGNVNTNYAQKFQGRATLTVDTSISTAYMELSRLRSDDTAVYYCTRSHYGLDWNFDVWGKGTTVTVSSDKTHTQVQLVESGGGVVQPGRSLRLSCAASGFTFTKAWMHWVRQAPGKQLEWVAQIKDKSNSYATYYADSVKGRFTISRDDSKNTLYLQMNSLRAEDTAVYYCRGVYYALSPFDYWGQGTLVTVSSDKTHTASTKGPSVFPLAPCSRSTSESTAALGCLVKDYFPEPVTVSWNSGALTSGVHTFPAVLQSSGLYSLSSVVTVPSSSLGTKTYTCNVDHKPSNTKVDKRVESKYGPPCPPCPAPEAAGGPSVFLFPPKPKDTLMISRTPEVTCVVVDVSQEDPEVQFNWYVDGVEVHNAKTKPREEQFNSTYRVVSVLTVLHQDWLNGKEYKCKVSNKGLPSSIEKTISKAKGQPREPQVCTLPPSQEEMTKNQVSLSCAVKGFYPSDIAVEWESNGQPENNYKTTPPVLDSDGSFFLVSKLTVDKSRWQEGNVFSCSVMHEALHNHYTQKSLSLSLG
heavy 2: QVQLVQSGAEVVKPGASVKVSCKASGYTFTSYAMHWVKEAPGQRLEWIGYIYPGQGGTNYNQKFQGRATLTADTSASTAYMELSSLRSEDTAVYFCARTGGLRRAYFTYWGQGTLVTVSSASTKGPSVFPLAPCSRSTSESTAALGCLVKDYFPEPVTVSWNSGALTSGVHTFPAVLQSSGLYSLSSVVTVPSSSLGTKTYTCNVDHKPSNTKVDKRVESKYGPPCPPCPAPEAAGGPSVFLFPPKPKDTLMISRTPEVTCVVVDVSQEDPEVQFNWYVDGVEVHNAKTKPREEQFNSTYRVVSVLTVLHQDWLNGKEYKCKVSNKGLPSSIEKTISKAKGQPREPQVYTLPPCQEEMTKNQVSLWCLVKGFYPSDIAVEWESNGQPENNYKTTPPVLDSDGSFFLYSKLTVDKSRWQEGNVFSCSVMHEALHNHYTQKSLSLSLG
light 2: DIVLTQSPATLSLSPGERATISCRASQSVSSYGQGFMHWYQQKPGQPPRLLIYGASSRATGIPARFSGSGSGTDFTLTISPLEPEDFAVYYCQQNKEDPWTFGGGTKLEIKRTVAAPSVFIFPPSDEQLKSGTASVVCLLNNFYPREAKVQWKVDNALQSGNSQESVTEQDSKDSTYSLSSTLTLSKADYEKHKVYACEVTHQGLSSPVTKSFNRGEC
notes: Trispecific antibody; also called BP # 1
B2: CD38hhy1195/CD28sup x CD3mid_ENLQ DKTHT IgG4 FALA (other)
light 1: B1 light 1
heavy 1: B1 heavy 1
heavy 2: QVQLVESGGGVVQPGRSLRLSCAASGFTFSSYGMYWVRQAPGKGLEWVAVIWYDGSNKYYADSVKGRFTISRDNSKNTLYLQMNSLRAEDTAVYHCARDPGLRYFDGGMDVWGQGTTVTVSSASTKGPSVFPLAPCSRSTSESTAALGCLVKDYFPEPVTVSWNSGALTSGVHTFPAVLQSSGLYSLSSVVTVPSSSLGTKTYTCNVDHKPSNTKVDKRVESKYGPPCPPCPAPEAAGGPSVFLFPPKPKDTLMISRTPEVTCVVVDVSQEDPEVQFNWYVDGVEVHNAKTKPREEQFNSTYRVVSVLTVLHQDWLNGKEYKCKVSNKGLPSSIEKTISKAKGQPREPQVYTLPPCQEEMTKNQVSLWCLVKGFYPSDIAVEWESNGQPENNYKTTPPVLDSDGSFFLYSKLTVDKSRWQEGNVFSCSVMHEALHNHYTQKSLSLSLG
light 2: DIQLTQSPSFLSASVGDRVTITCRASQGISSYLAWYQQKPGKAPKLLIFAASTLHSGVPSRFSGSGSGTEFTLTISSLQPEDFATYYCQQLNSFPYTFGQGTKLEIKRTVAAPSVFIFPPSDEQLKSGTASVVCLLNNFYPREAKVQWKVDNALQSGNSQESVTEQDSKDSTYSLSSTLTLSKADYEKHKVYACEVTHQGLSSPVTKSFNRGEC
notes: Trispecific antibody; also called BP # 8
B3: CD38hyb6284/CD28sup x CD3mid_ENLQ DKTHT IgG4 FALA (other)
light 1: B1 light 1
heavy 1: B1 heavy 1
heavy 2: QVQLLQSGAELVRPGVSVKISCTGSGYSFTNYAVHWVKQSHVKSLEWIGVISPYYGDTTYNQKFTGKATMTVDKSSSTAYMELARLTSEDSAIYFCARRFEGFYYSMDYWGQGTSVTVSSASTKGPSVFPLAPCSRSTSESTAALGCLVKDYFPEPVTVSWNSGALTSGVHTFPAVLQSSGLYSLSSVVTVPSSSLGTKTYTCNVDHKPSNTKVDKRVESKYGPPCPPCPAPEAAGGPSVFLFPPKPKDTLMISRTPEVTCVVVDVSQEDPEVQFNWYVDGVEVHNAKTKPREEQFNSTYRVVSVLTVLHQDWLNGKEYKCKVSNKGLPSSIEKTISKAKGQPREPQVYTLPPCQEEMTKNQVSLWCLVKGFYPSDIAVEWESNGQPENNYKTTPPVLDSDGSFFLYSKLTVDKSRWQEGNVFSCSVMHEALHNHYTQKSLSLSLG
light 2: DVVMIQTPLSLPVSLGDQASISCRPSQSLVHSNGNTYLNWYLQRPGQSPKLLIYKVSKRFSGVPDRFSGSGSGTDFTLKISRVEAEDLGVYLCSQSTHVPLTFGSGTQLEIKRTVAAPSVFIFPPSDEQLKSGTASVVCLLNNFYPREAKVQWKVDNALQSGNSQESVTEQDSKDSTYSLSSTLTLSKADYEKHKVYACEVTHQGLSSPVTKSFNRGEC
notes: Trispecific antibody; also called BP # 7

The target of one assay is T1, human CD38 on tumor cell lines NCI-H929 (CD38+/CD28+) and OCI-LY19 (CD38+/CD28-) (human, UniProt P28907 1-300). The assay is described as follows: cell-based or functional assay.
As to B1, the “EC50 of in vitro killing of NCI-H929 (CD38+/CD28+) cells, With Dara” value (from here on “EC50 … (CD38+/CD28+) cells, With Dara”) is 0.0298 nM and the “EC50 of in vitro killing of NCI-H929 (CD38+/CD28+) cells, With human IgG1” value (from here on “EC50 … (CD38+/CD28+) cells, With human IgG1”) was determined as 0.00106 nM.
In the case of B2, the “EC50 … (CD38+/CD28+) cells, With Dara” value was determined as 0.0893 nM and the “EC50 … (CD38+/CD28+) cells, With human IgG1” value came to 0.017 nM.
As for B3, the “EC50 … (CD38+/CD28+) cells, With Dara” value worked out at 0.0336 nM and the “EC50 … (CD38+/CD28+) cells, With human IgG1” value stood at 0.00437 nM.

Another assay has as its target T1, human CD38 on tumor cell lines NCI-H929 …. The assay can be described thus: cell-based or functional assay. The source holds these as a separate data set.
Regarding B1, the “EC50 of in vitro killing of OCI-LY19 (CD38+/CD28-) cells, With Dara” value (“EC50 … (CD38+/CD28-) cells, With Dara” below) stood at 0.136 nM and the “EC50 of in vitro killing of OCI-LY19 (CD38+/CD28-) cells, With human IgG1” value (“EC50 … (CD38+/CD28-) cells, With human IgG1” for short) came out at 0.00566 nM.
Take B2: the “EC50 … (CD38+/CD28-) cells, With Dara” value was determined as 0.715 nM and the “EC50 … (CD38+/CD28-) cells, With human IgG1” value came out at 0.296 nM.
For B3, the “EC50 … (CD38+/CD28-) cells, With Dara” value was 0.081 nM and the “EC50 … (CD38+/CD28-) cells, With human IgG1” value is 0.0421 nM.

For a further assay, the target named is T2, Human CD28 (human, UniProt P10747 19-152, limits assumed).
T2 construct: also called hCD28
The assay is described as follows: ELISA, antigen-coated plate.
Procedure: (§1) Binding affinities to each target antigen by the CD38/CD28×CD3 T cell engagers were measured by ELISA. Briefly, each antigen was used to coat the 96-well Immuno Plate (Thermo Fisher Scientific) overnight at 4° C. using 200 ng/well in PBS (pH7.4) of each antigen. The coated plate was blocked using 5% skim milk+2% BSA in PBS for one hour at RT, followed by washing with PBS+0.25% Tween 20 three times (Aqua Max 400, Molecular Devices). Serial dilution of antibodies (trispecific and control Abs) were prepared and added onto the ELISA plates (100 μl/well in duplicate), incubated at room temperature (RT) for one hour, followed by washing 5 times with PBS+0.25% Tween 20. […] The reaction was terminated by adding 50 μl 1M H₂SO₄, and OD450 was measured using SpectraMax M5 (Molecular Devices) and analyzed using SoftMax Pro6.3 software (Molecular Devices). The final data was transferred to GraphPad Prism software (GraphPad Software, CA, USA), and plotted. EC50 was calculated using the same software.
(§2) The binding affinities of selected CD38/CD28sup×CD3mid_ENLQ DKTHT IgG4 FALA trispecific antibodies with alternative anti-CD38 binding domains for human CD3, human CD28, human CD38 and cynomolgus monkey CD38 were then determined by ELISA as described above.
For B1, the midpoint of the response, the EC50, lay at 0.725 nM.
Consider B2, for which the EC50 (commonly the concentration at which the effect is half-maximal) is 0.697 nM.
Consider B3, for which the EC50 was 0.711 nM.

The next assay concerns the target T3, human CD38 (human, UniProt P28907 43-300, limits assumed).
T3 construct: also called hCD38; huCD38
The assay can be described thus: ELISA, antigen-coated plate. For orientation: In an ELISA, binding on a coated surface is turned into a signal by an enzyme label.
Procedure: as §1, §2
Regarding B1, the EC50 amounted to 7.24 nM.
Same read-out and setting: the value for B2 was 103 nM; that for B3 was 0.253 nM.

A further assay concerns the target T4, cynomolgus monkey CD38 (cynomolgus monkey, UniProt Q5VAN0 44-301, limits assumed).
T4 construct: also called Cyno CD38; cynoCD38
The assay is described as follows: ELISA, antigen-coated plate.
Procedure: as §1, §2
On to B1, for which a half-maximal response (EC50) required 2.13 nM.
As to B2, a half-maximal effect (EC50) was put at 37.7 nM.
On the same count and under the same terms, to B3 belongs 0.29 nM.

A further assay concerns the target T5, Human CD3 (human).
T5 chain: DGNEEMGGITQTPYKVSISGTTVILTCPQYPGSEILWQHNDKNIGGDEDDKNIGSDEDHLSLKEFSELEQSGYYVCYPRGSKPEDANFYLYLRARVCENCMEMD
The assay is described as follows: ELISA, antigen-coated plate.
Procedure: as §1, §2
As to B1, the EC50 was 6.74 nM.
With B2, the EC50 worked out at 7.63 nM.
B3 registered a 50% effective concentration (EC50) of 8.22 nM.

In another assay the target is T6, Human CD38-His (human, UniProt P28907 43-300, limits assumed).
T6 construct: Bought antigen; also called human CD38 (SPR antigen); not shown: His tag
The assay is described as follows: SPR (BIACORE 3000), capture format, 1:1 Langmuir model.
Consider B1, for which binding was put at a Kd of 2.85 nM; the koff (as a rule, a measure of how fast the partners let go of each other) worked out at 0.00158 s⁻¹; the kon – broadly, a measure of how fast the partners come together – came to 555000 M⁻¹ s⁻¹.
On to B2, for which the Kd (as a rule, a measure of binding affinity in units of concentration) is 14.2 nM; the koff worked out at 0.018 s⁻¹; the kon amounted to 1.27e+06 M⁻¹ s⁻¹.
The molecule B3 registered a Kd of 0.652 nM, a koff of 0.000512 s⁻¹ and a kon of 785000 M⁻¹ s⁻¹.
